Laboratory results taken from patent US20130231277A1 (NEW YORK UNIVERSITY, published 2013).

Assays:
[1] = target: FGFR1c endogenously expressed by HEK293 cells transiently transfected with murine βKlotho (UniProt P11362 22-822); test: cell-based or functional assay
[2] = target: T1, 1:1 binary complex of FGFR1c ligand-binding domain and βKlotho ectodomain (human; murine, UniProt P11362 142-365; Q99N32 53-995); test: SPR competition; FGF21 immobilized, complex mixed with the mutant at a molar ratio of 1:2 or 1:6 (FIG. 14B)
T1 construct: also called FGFR1c-βKlotho complex; FGFR1c-βKlotho; not shown: C-terminal FLAG tag
T1 sequence 1: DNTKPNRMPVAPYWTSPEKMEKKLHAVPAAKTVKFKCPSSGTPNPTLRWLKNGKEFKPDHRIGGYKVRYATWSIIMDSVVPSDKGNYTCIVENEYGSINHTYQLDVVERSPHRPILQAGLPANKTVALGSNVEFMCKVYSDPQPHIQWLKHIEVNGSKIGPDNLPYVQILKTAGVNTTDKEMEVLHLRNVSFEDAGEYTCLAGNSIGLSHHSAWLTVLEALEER
T1 sequence 2: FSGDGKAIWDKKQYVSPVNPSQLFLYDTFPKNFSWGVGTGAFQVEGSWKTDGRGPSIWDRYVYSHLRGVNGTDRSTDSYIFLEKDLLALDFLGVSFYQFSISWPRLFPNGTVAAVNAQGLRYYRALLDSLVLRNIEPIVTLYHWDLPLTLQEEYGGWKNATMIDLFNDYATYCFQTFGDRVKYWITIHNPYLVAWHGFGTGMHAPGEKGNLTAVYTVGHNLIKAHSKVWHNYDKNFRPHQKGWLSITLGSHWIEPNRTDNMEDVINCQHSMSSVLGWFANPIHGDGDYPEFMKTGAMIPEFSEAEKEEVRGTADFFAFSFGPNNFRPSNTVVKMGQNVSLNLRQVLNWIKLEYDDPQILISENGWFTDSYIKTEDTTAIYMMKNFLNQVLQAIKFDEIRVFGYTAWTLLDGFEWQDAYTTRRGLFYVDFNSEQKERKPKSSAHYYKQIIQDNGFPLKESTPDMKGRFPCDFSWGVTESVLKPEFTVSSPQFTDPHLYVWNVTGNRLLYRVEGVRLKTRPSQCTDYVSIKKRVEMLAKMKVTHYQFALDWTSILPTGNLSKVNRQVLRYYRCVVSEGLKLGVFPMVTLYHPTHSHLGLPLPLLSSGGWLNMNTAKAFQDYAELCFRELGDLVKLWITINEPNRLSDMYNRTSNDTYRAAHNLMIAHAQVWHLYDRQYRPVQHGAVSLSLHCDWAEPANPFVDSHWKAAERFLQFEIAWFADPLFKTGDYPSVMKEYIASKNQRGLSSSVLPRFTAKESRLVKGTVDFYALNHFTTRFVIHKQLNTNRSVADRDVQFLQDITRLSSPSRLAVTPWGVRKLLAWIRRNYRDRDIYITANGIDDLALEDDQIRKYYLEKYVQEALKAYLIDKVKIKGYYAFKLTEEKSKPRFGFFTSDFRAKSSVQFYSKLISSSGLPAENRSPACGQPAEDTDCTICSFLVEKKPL
Experimental: Increasing concentrations of FGF21 were mixed with a fixed concentration of FGFR1c-βKlotho complex, and the mixtures were passed over a FGF21 chip. […] In the experiments shown in FIGS. 14B-14C, FGFR1c-βKlotho complex was mixed with either mutant FGF21 or wild-type FGF21 at a molar ratio of 1:2 or 1:6, and the mixtures were injected over a FGF21 chip. The data shown in FIGS. 14A-14C are representative of two to three independent experiments.
SPR experiments were performed on a Biacore 2000 instrument (Biacore AB), and all the protein-protein and protein-peptide interactions were studied at 25° C. in HBS-EP buffer (10 mM HEPES-NaOH, pH 7.4, 150 mM NaCl, 3 mM EDTA, 0.005% (v/v) polysorbate 20). Proteins were immobilized by amine coupling on flow channels of research grade CM5 chips (Biacore AB). Proteins were injected over a CM5 chip at a flow rate of 50 μl min⁻¹, and at the end of each protein injection (180 s), HBS-EP buffer (50 μl min⁻¹) was flowed over the chip to monitor dissociation for 180 s. In experiments where βKlotho binding to FGFR was analyzed, the chip surface was then regenerated by injecting 50 μl of 2.0 M NaCl in 10 mM sodium/potassium phosphate, pH 6.5. In experiments where α/βKlotho binding to FGF19/21/23 or binding of the FGFR1c-βKlotho complex to FGF21 was studied, 2.0 M NaCl in 10 mM sodium acetate, pH 4.5 was used for chip regeneration.

[3] = target: T2, ectodomain of murine βKlotho (F53 to L995 of SEQ ID NO: 218) with a C-terminal FLAG tag (murine, UniProt Q99N32 53-995); test: size-exclusion chromatography of the binary complex (FIG. 1A)
T2 construct: Expressed in HEK293 cells and purified from culture media; also called βKlotho ectodomain; not shown: C-terminal FLAG tag
T2 sequence: T1 sequence 2
Experimental: Size-exclusion chromatography experiments were performed on a HiLoad™ 16/60 Superdex™ 200 prep grade column (GE Healthcare) mounted on an ÄKTApurifier (GE Healthcare). […] Sample injection volume was 0.9 to 2.0 ml, and the flow rate was 1.0 ml min⁻¹. Protein retention times were determined by absorbance at 280 nm. The column was calibrated with ferritin (440 kDa), immunoglobulin G (150 kDa), albumin (69.3 kDa), ovalbumin (44.3 kDa), carbonic anhydrase (28.8 kDa), and ribonuclease A (13.7 kDa). The void volume was determined using blue dextran 2,000, and the column volume was measured with acetone. To examine ternary complex formation between FGF21, FGFR1c, and βKlotho, 2.72 μmol of the 1:1 binary complex of FGFR1c ligand-binding domain and βKlotho ectodomain were mixed with 9.25 μmol of FGF21, and the mixture was applied to the size-exclusion column. The retention time of the FGFR1c-βKlotho complex alone served as a reference point. To examine ternary complex formation between FGF19, FGFR4, and βKlotho, 2.46 μmol of the 1:1 binary complex of FGFR4 ligand-binding domain and βKlotho ectodomain were mixed with 8.51 μmol of FGF19, and the mixture was applied to the size-exclusion column. The retention time of the FGFR4-βKlotho complex alone served as a reference point. […]

[4] = target: T2, ectodomain of murine βKlotho (F53 to …); test: SPR competition; FGF19 or FGF21 immobilized, fixed βKlotho ectodomain mixed with increasing peptide (FIGS. 5B, 5F)
Description: Residues that are identical between FGF19 and FGF21 are shaded gray. Note that 40% of these residues map to the most C-terminal sequence. […] FGF19 was immobilized on a biosensor chip, and mixtures of a fixed concentration of βKlotho ectodomain with increasing concentrations of FGF19^C-tail were passed over the chip. […] Mixtures of a fixed concentration of βKlotho ectodomain with increasing concentrations of FGF21^C-tail were passed over a biosensor chip onto which FGF19 had been immobilized. […] FGF21 was immobilized on a biosensor chip, and mixtures of a fixed concentration of βKlotho ectodomain with increasing concentrations of FGF21^C-tail were passed over the chip. […] Mixtures of a fixed concentration of βKlotho ectodomain with increasing concentrations of FGF19^C-tail were passed over a biosensor chip onto which FGF21 had been immobilized. […] The data shown in FIGS. 5B-G are representative of two to three independent experiments.

Chain of FGFR1c endogenously expressed by HEK293 cells transiently transfected with murine βKlotho (P11362 22-822): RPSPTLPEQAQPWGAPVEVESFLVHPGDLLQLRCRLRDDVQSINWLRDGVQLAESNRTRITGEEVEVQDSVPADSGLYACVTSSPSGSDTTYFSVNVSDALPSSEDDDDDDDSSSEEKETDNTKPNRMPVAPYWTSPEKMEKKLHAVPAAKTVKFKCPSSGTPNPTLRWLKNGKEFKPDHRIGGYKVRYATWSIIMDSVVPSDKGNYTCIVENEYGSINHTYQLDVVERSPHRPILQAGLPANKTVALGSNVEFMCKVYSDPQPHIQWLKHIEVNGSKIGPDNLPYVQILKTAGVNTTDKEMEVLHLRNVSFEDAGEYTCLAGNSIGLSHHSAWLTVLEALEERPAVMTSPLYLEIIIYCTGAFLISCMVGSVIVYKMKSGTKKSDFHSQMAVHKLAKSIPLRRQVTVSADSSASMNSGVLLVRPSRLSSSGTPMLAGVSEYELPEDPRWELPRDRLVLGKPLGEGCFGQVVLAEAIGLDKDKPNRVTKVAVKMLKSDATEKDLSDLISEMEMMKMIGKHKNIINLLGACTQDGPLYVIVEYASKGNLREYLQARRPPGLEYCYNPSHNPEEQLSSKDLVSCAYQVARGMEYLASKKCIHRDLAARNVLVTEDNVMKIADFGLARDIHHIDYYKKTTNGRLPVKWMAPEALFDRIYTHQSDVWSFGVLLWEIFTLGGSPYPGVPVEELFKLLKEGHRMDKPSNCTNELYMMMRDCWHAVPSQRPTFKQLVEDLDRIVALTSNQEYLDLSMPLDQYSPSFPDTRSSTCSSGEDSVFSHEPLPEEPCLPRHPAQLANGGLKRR

B1: FGF21^29-167/FGF19^169-216 chimera (H29 to L167 of human FGF21 and L169 to K216 of human FGF19; SEQ ID NO: 207) (ligand)
chain: HPIPDSSPLLQFGGQVRQRYLYTDDAQQTEAHLEIREDGTVGGAADQSPESLLQLKALKPGVIQILGVKTSRFLCQRPDGALYGSLHFDPEACSFRELLLEDGYNVYQSEAHGLPLHLPGNKSPHRDPAPRGPARFLPLLPMVPEEPEDLRGHLESDMFSSPLETDSMDPFGLVTGLEAVRSPSFEK
Q: Which “Induction of Egr1 protein expression (immunoblot, HEK293 cells co-expressing FGFR1c and βKlotho)” value [1] does the source give for B1 here?
A: 10 fold lower concentration than native FGF21

B2: Y207F single mutant of human FGF21 (SEQ ID NO: 232) (ligand)
chain: HPIPDSSPLLQFGGQVRQRYLYTDDAQQTEAHLEIREDGTVGGAADQSPESLLQLKALKPGVIQILGVKTSRFLCQRPDGALYGSLHFDPEACSFRELLLEDGYNVYQSEAHGLPLHLPGNKSPHRDPAPRGPARFLPLPGLPPALPEPPGILAPQPPDVGSSDPLSMVGPSQGRSPSFAS
notes: It was purified by the same protocol as the wild-type protein, which was H29 to S209; also called Y207F mutant of FGF21; single mutant FGF21
Q: Does B2 bind [2]?
A: binds

B3: ligand-binding domain of human FGFR1c (D142 to R365 of SEQ ID NO: 221) (receptor)
chain: T1 sequence 1
Q: Does B3 bind [3]?
A: binds

B4: C-terminal tail peptide of human FGF19 (M171 to K216 of SEQ ID NO: 1), fused to a 50 residue-long N-terminal tag including a hexahistidine tag (peptide)
peptide: MVPEEPEDLRGHLESDMFSSPLETDSMDPFGLVTGLEAVRSPSFEK
notes: Expressed in E. coli and purified from the soluble lysate fraction; also called FGF19^C-tail; FGF19 C-terminal tail peptide; not shown: 50 residue-long N-terminal tag including a hexahistidine tag
Q: Does B4 bind [4]?
A: binds
